Data on two molecules can be found in publication PMC3677877 (PLoS ONE, 2013).

A word on the Ki: it is the equilibrium dissociation constant of an inhibitor or competing ligand from its target. Low values mean a stronger hold on the target, high ones a looser hold on the target.

The target of one test is caspase 3 (UniProt P42574).
The next test concerns the target papain (UniProt P00784).
Test [1] concerns the target rKgp: mature recombinant Kgp catalytic domain with the ABM1 motif (Gly681-Ala710) deleted (Porphyromonas gingivalis W50).
The target of test [2] is T1, mature RgpB from P. gingivalis HG66 (Porphyromonas gingivalis HG66, UniProt P95493 230-736).
T1 chain: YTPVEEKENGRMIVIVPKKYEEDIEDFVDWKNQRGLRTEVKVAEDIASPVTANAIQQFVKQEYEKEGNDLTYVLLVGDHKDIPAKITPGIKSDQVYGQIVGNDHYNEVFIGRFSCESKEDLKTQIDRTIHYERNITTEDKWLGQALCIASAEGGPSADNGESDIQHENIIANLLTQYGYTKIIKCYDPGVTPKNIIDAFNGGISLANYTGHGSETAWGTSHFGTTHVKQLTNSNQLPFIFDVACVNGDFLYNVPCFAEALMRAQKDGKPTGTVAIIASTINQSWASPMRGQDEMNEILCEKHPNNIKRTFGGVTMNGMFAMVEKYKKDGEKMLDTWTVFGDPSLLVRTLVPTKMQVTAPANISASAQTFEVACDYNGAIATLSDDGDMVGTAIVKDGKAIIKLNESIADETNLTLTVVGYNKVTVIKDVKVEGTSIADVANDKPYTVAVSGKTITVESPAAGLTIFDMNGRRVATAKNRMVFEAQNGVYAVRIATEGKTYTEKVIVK
Description: enzyme inhibition kinetics. The settings on record: both partners purified.

Chain of papain (P00784 134-345): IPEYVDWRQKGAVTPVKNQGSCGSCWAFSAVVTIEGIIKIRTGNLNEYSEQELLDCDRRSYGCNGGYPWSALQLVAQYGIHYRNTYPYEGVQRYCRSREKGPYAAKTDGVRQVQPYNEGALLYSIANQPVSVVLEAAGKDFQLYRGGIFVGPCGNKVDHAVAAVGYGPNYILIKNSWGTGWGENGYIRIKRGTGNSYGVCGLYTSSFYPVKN
Chain of caspase 3 (P42574 whole entry): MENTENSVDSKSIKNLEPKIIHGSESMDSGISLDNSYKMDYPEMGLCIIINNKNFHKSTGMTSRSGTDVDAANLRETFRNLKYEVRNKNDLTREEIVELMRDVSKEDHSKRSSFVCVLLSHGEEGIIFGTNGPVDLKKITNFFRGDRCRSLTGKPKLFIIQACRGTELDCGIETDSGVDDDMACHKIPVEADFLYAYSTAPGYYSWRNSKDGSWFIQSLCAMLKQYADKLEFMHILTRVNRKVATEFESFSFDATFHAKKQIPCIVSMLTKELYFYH

As for “recombinant RgpB propeptide (thrombin-cleaved) (from UniProt P95493 25-222) (domain or fragment)”, the % proteolytic activity of caspase 3 (60 Units) with RgpB-PP at 100 mg/L, substrate Ac-DEVD-pNa (200 µM) (% proteolytic activity) with caspase 3 is 133. Moreover, the % proteolytic activity of papain (2.75 mg/L) with RgpB-PP at 100 mg/L, substrate BapNA (% proteolytic activity) in the test with papain was determined as 103. Also, in test [1], the % proteolytic activity of Kgp (0.0075 mg/mL) with RgpB-PP at 50 mg/L, substrate GPKNA (% proteolytic activity) is 118.

B1: recombinant RgpB propeptide (thrombin-cleaved) (domain or fragment)
chain: QPAERGRNPQVRLLSAEQSMSKVQFRMDNLQFTGVQTSKGVAQVPTFTEGVNISEKGTPILPILSRSLAVSETRAMKVEVVSSKFIEKKDVLIAPSKGVISRAENPDQIPYVYGQSYNEDKFFPGEIATLSDPFILRDVRGQVVNFAPLQYNPVTKTLRIYTEIVVAVSETAEAGQNTISLVKNSTFTGFEDIYKSVFMNYEATR
modifications: Text prints 25-222, but the reverse primer encodes FMNYEATR-stop (end at 229), and 209 aa = GSHM vector remnant + 205 residues (25-229). The GSHM remnant left after thrombin cleavage is omitted. …
Take B1: affinity in test [2] was put at a Ki of 12 nM.
